Assay results from patent US20190033318A1.

What was measured:
Assay in all cases: thermal shift assay, 1 mM peptide
[1] = molecular target: GST-1β (GST-tagged HIF-1β 1-474, isoform 2, Δ77-91) (UniProt P27540)
[2] = molecular target: 1α PASB (HIF-1α PASB domain, 238-349) (UniProt Q16665)
[3] = molecular target: 2α PASB (HIF-2α PASB domain, 240-350) (UniProt Q99814)
[4] = molecular target: Trx-2α (thioredoxin-tagged HIF-2α 1-360, bHLH-PASA-PASB) (UniProt Q99814)
Sequence of Trx-2α (thioredoxin-tagged HIF-2α 1-360, bHLH-PASA-PASB) (Q99814 1-360): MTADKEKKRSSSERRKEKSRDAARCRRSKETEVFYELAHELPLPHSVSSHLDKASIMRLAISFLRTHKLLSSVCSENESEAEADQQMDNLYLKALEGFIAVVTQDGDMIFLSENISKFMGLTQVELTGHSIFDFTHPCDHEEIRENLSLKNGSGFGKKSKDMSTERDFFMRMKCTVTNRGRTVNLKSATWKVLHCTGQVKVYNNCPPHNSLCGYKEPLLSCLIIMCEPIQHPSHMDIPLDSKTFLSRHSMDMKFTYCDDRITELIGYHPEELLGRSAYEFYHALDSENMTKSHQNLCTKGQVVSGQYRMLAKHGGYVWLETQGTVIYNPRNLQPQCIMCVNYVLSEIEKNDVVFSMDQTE

Sequence of 1α PASB (HIF-1α PASB domain, 238-349) (Q16665 238-349): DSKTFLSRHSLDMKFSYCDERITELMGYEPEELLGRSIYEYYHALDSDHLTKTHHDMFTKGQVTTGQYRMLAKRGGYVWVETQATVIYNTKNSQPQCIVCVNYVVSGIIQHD
Sequence of 2α PASB (HIF-2α PASB domain, 240-350) (Q99814 240-350): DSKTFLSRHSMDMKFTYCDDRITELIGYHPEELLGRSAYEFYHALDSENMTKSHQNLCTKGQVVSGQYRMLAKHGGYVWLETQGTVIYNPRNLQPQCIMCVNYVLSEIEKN

Row | Binder | ΔTm [1] [° C.] | ΔTm [2] [° C.] | ΔTm [3] [° C.] | ΔTm [4] [° C.]
1 | CRVIIF (cyclic peptide (cyclo-, first amino acid joined to the last)) [cyclo-CRVIIF (SEQ ID NO 4)] | -0.5 | – | – | –
2 | SGWEMIQRR (cyclic peptide (first amino acid joined to the last)) [cyclo-… (SEQ ID NO 5)] | – | -0.5 | -2.5 | -2
